According to the DeepSol protein solubility set:

Assay: soluble on expression in E. coli; label from the status in PepcDB or PDB records

| Sequence | soluble on expression in E. coli |
| --- | --- |
| MGHHHHHHGGHMSLKVFIDPDGDIEEIKEAFRLINPELYERLLKIDGSDEFFRYMVKPLRVSVRVNTLKAEVDEVVENLKELITGRVPWCEEGFYLSIDEFSRIPEHQLGLIFSQEAASMIPPLVMELEPKMTVLDIAASPGAKTTQIAQYLQNEGCIVANDVKHSRINILISNLQRCGVLIAKVTVKDGRYFGRFRNRFDAVLVDAPCSNMGMIRKNYRNIRLWKMRDCYGLSKLQKSLLMAAYKAVKPGGVVVYSTCTLEPIENEEVVDYILRNTDAEIEEVNLPVKGVEPFTKFDGKEYSEEVRKCLRLHPQSSDTEGFFVAKLRKPEGGS | soluble |
| MGSDKIHHHHHHMKHIAVIGAGLGGLSAAISLASKGFKVTVIERNEHIGGKMMPITSEGHRFDFGPNTITMPEIFQSVILESGADPDDYFTFEKLTRHTVNHFPDGRSLTFASGREAMRTEVDRFTKGQLAKNDITGYQDEVRELYNIAKQQFFINIDSYFNFSLLRDMTKVHPFKTLHGLHKKYFKDPQLIQALDRYATYIGSSPFQAPATFGLIAHLELNDGVYFTRGGNTAIAEGFARRARELGVTFRLGDEVTQIEVTNQLATEIELNHVDYLSVDFIVLNGDLLTQYPRLISETVRPDFKNPTPAQMEPSISAYVRCIGLGRRIAGLAHHNVFFSSDYEAEFEALFNQHRYAEEPTIYISNSSVTAPEMGEAGDNLFVLVNAPATHKGSAVDFDTYDKIIDQRLQQFGIDITSDVLFEQRITPQDIEQKFSAYHGSLYGLSSNGTRGAFMRPSNRSKNVHNLFFAGGSTHPGGGSPMVTLSGKLASERIVSAVAATL | not soluble |
| MGHHHHHHSHMEDYSQEDWGNHSQDLHGYPTDQELDEIPVTKRTLKIKQESSEEAQKRDIMQNIVQILESVQLKWELFQSWTDFSRLHLSNKLAIFGIGYNTRWKEDIRYHYAEISSQVPLGKRLREYFNSEKPEGRIIMTRVQKMNWKNVYYKFLEITISEARCLELHMEIDWIPIAHSKPTGGNVVQYLLPGGIPKSPGLYAIGYEECIERPLSPHMEQSSLDPGKEGRVDLETLSAQASLQVEIEPTRIIYCYLGIAEVRTLQQCLFLHFQANTKTFSKDWVGINGFLSQNCIVDPGVSPKSIYIKFVEVERDFLSAGSLVECLEKAIGYPLKFNN | not soluble |
| MKTLFAFFILIFSNIVYAAPKAELWAYWQASNDSNTASVSHQAWQSILDRNLVQVGENALFRYAEVTKEDKTLLNDYLDQLSKLDPREFNRQEQYAYWVNLYNALTVKLILDNYPVASITKLGGLFSFGPWDEKVFTVAGQTLTLNDIEHRILRPIWKDPRTHYAVNCASLGCPNLQSQAFTAQNTERLLSNAAHTFINSSKGATLNNDTLILSSIYDWFAVDFGNKKELLIHLAQYRPELSLYSGKIDYQYDWKLNDTKEKKLEHHHHHH | soluble |
| DEGPLMMNAFEMITLSQGLNLSALFDRRQDFVKRQTRFVSRREPSEIIANIEAVANSMGFKSHTRNFKTRLEGLSSIKAGQLAVVIEIYEVAPSLFMVDVRKAAGETLEYHKFYKKLCSKLENIIWRATEGIPKSEILRTITF | soluble |
| MSLNIETIVKGRRMITKFPPQWQEKLDQVAFTHLTPIQEQAFQPIVDGKNFLGISPTGTGKTLAYVFPSLLALTPKKSQQLLILAPNTELAGQIFEVTKDWAQPLGLTAQLFISGTSQKRQIERLKKGPEILIGTPGRIFELIKLKKIKMMSVNTIVLDEYDELLGDSQYDFVQKISHYVPRDHQMVYMSATNKVDQTSLAPNTFCIDLSEQTNDAIQHFYLMVDKRERTDLLRKFANIPHFRALVFFNSLSDLGATEERLQYNGAAAVSLASDINVKFRKTILEKFKSHQLSLLLATDLVARGIDIDNLDYVIHFDVARDKENYTHRAGRTGRMGKSGIVITFVSHPEDLKKLKKFAKVSEISLKNQQLHFINEGHHHHHH | not soluble |
| MFGTNGNAGIAVTDPTKQAEIYRALESLKKDESGWKKSVDSFIGPHKPSPEEQFLLLQVIEDYLNKRYHSSSQGDVSVIRTFLLHYTKNSRSSTVDQPAFLTNKMAHIFSLVFAADFPERWSSFFNDLFFSDNINDRKVAFFYLKVLLAIDTEVVNRDIQRSKNESDRNIKIKDAMREICINEIAKSWLTIANALPEDNVIQCLVLDNIASYVDWIELDLVANDYVMPLIISKFQNPATSESATAAVCSLLEKGMPAEKKVGLTLTIMTVLRSNGLLTVNDNNDEEEVTRVGSLVNTLGLVLLDVQNKLCASSILEKEQECCVQEMAGLAEPALVVLNNEDPDLSCMCIDYIRAYCSFLLKFHPNETNFIEKVIRAGLQRYVMNDDMTVGGDGEDEVEFQEFRRELRSMLNVIGLKRPEAIINAVEPWTAEVTSGGSSIPVNRIEALLNVIFHLHEIIPSNMLQSPREGISQRAARLPIVILEGLVLDGRCPAIHVLYFELACRYERLLVLQPQPVVIPHIAAAFLDQRGISISSANVRTRIVYLFCRFVKSHKTVLGPLVSEVITRLAPLLAVSPQADTNQLLSPEDQGYIFEATATLIVFGDLTSEMKSQYVGELASTLAMKFENGLVELNTARARKADEETIQAILQFMSNIIGYSSRMSKAFNNAQSMKACNCIDIYLRLIKLYLETLSPQNAFLLESTRQFAHRLVVSMENELMPYMNGIFDKLALVSTDLDSMHHLLIFCHQTVAKYKKAMLTSGVDLGNVLAIAARASLQEQENNIPAKDDSQRALLYVQRAFVQLLYTVIASDCTPALNTTPGLLDHVLESAARLALSSDQTAQKVALSCLAKISLITPSWSARTLRVALEIPSLSHITPSDAGSTLVVHEVCATLTSLHQSDPDGFTRALRELVPNGFSDQLLSALTNLKGKNLDKQVMNLYSSLRNQSAQ | not soluble |
| MAHHHHHHMLTLNRRDKEICQELIRKNFTLSQIQSYNEPEYSGWVSRRRRVSNIFVWELNWLATSGNYLLCFSQKKDSCHPIKIMYLPEAIIRRCSMKEECCVGHPFVLEIVPCLHFVREEKGLFPVKPHEVHFSFENVEDLCGTIAFLAKISARHVRTASITFGPPTRVNHRIHLRAARGKNDFGLELLPLPMREWLLRQGITCAEMAGNETTALNCATTLYEVQMQRGMLEDLPPISEEGVTEKRYEDKAGVPPFPLPSENEGGALEPLLSAGDPESLFSDWERLDGGSQGEVFKAVRVVDGRKVAIKRITVRGDHKVPQSLVKEMSLLKALHHPNIVTLYDCYRKGKHLFLAMELMDGGKLTDLLIPSEGEPVEFTEAQLATLIREVLRALRCLHNARCVHRDVKSDNVLLSSNGEVKLGDFGFATLLTSPGGMRRTLVGTPYWMAPEVAGGKAYNDKADVWSAGILFLEMCDGQPPLMGMNPMRALLTVSTGPPPVMRTANRWSSLCREFASFLLVKDPARRPSVDDALRHPFIVKKAEPTCRFVATILQRRK | soluble |
| GLKEHDFNPEEAEETKQVSWKLVTEYAMETKCDDVLLLLGMYLEFQYSFEMCLKCIKKEQPSHYKYHEKHYANAAIFADSKNQKTICQQAVDTVLAKKRVDSLQLTREQMLTNRFNDLLDRMDIMFGSTGSADIEEWMAGVAWLHCLLPKMDSVVYDFLKCMVYNIPKKRYWLFKGPIDSGKTTLAAALLELCGGKALNVNLPLDRLNFELGVAIDQFLVVFEDVKGTGGESRDLPSGQGINNLDNLRDYLDGSVKVNLEKKHLNKRTQIFPPGIVTMNEYSVPKTLQARFVKQIDFRPKDYLKHCLERSEFLLEKRIIQSGIALLLMLIWYRPVAEFAQSIQSRIVEWKERLDKEFSLSVYQKMKFNVAMGIGVLD | soluble |
| MGSDKIHHHHHHMQEDISRKSPMLSNIKSWYRRRIIENHSVPDDIWQNAIARLRFLQALEAVELERLRECVVLFLHVKQISGAHGLVITDEMRVLIAAQACILILNLDLDYYDGWVEIIVYPGEFIRDYEYVDEDGIVHHAVEPASGESWLGGPVILSWEDAVAAVSGTEISQGYNVVIHEFAHKLDMLNGEANGFPPIHPDMSRQAWSEAFSKAYADFCRSIDAGEMMEIDLYAAESPAEFFAVISEAFFEMPISVRIHFPAVYEQLALFYRQDPAQRRSEP | not soluble |
| MKRIDLLLNVLDSTFDKESWYAPFKYAIEGLTAEQAMWKPAGETTNTIWENVNHLTYYKERLAANLEGREWTHNLDGNDTFYLTKQSNNDTEWKEVVERSENAQRNLRQVLSAISERELEQNSLEGKLLDIMLHDAYHTGQIIQLRKMQGAWPSKR | not soluble |
| MADDKDVLRDVWFGRIPACFTLSPDETTEREAEPYYLLLPRVSYLTLVTDKVKKHFLKVMKAEDVEEMWFEHEGTPLKWHYPIGVLFDLHASNSALPWNVTVHFKNFPEQDLLHCSTNSVIEAHFMSCIKEADALKHKGQVINDMQKKDHKQLWMGLQNDKFDQFWAMNRKLMEYPTEEGGFRYIPFRIYQTMSDRPFIQTLFRPVSSEGQALTLGDLLKELFPAAIEDEPKKFQVMIHGIEPLLETPIQWLSEHLSHPDNFLHISIIPAPSD | not soluble |
